Laboratory results: US20200283521A1 (GRANULAR THERAPEUTICS, published 2020)
Where two headings read alike, the source gives them in different places.

Tests used:
Experiment in all cases: cell array, transfected fixed HEK293 cells
SLMAP [1] = target: T1, SLMAP (human, UniProt Q14BN4)
T1 construct: expressed in transfected HEK293 cells
T1 sequence (looked up): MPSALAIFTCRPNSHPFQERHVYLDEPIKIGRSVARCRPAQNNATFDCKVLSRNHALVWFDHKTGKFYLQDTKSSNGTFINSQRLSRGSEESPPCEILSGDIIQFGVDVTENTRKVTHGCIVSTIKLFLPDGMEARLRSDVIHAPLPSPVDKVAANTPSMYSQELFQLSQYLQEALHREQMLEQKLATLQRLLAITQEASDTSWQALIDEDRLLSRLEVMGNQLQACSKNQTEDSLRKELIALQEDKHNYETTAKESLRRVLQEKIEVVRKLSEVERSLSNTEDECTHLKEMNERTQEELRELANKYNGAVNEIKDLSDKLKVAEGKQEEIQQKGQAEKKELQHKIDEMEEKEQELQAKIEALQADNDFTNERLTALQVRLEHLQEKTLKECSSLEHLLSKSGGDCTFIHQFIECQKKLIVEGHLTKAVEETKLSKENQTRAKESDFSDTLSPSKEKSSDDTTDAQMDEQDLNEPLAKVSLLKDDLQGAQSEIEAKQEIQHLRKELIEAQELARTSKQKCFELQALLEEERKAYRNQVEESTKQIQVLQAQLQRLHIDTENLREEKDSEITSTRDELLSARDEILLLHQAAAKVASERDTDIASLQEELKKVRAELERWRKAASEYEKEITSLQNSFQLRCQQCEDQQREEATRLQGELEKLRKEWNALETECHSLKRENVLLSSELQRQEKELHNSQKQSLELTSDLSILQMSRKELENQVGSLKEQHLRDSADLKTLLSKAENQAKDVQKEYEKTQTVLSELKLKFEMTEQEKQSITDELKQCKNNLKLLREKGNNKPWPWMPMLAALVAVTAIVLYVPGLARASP
Description: (§1) Transfection of all plasmids was confirmed by screening for the co-encoded marker ZS green (FIG. 13A).
(§2) Primary hits (duplicate spots) were identified by analysing fluorescence (AF647 and ZsGreenl) on ImageQuant. Vectors encoding all hits were sequenced to confirm their correct identities. […] Slides were analysed as above.

ZG16B = target: T2, ZG16B (human, UniProt Q96DA0)
T2 construct: expressed in transfected HEK293 cells
T2 sequence (looked up): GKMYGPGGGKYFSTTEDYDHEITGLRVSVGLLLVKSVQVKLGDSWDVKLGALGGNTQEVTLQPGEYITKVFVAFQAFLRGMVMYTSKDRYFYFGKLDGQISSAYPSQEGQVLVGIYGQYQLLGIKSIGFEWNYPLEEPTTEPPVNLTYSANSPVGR
Description: as §1, §2

OSM = target: T3, OSM (human, UniProt P13725)
T3 construct: expressed in transfected HEK293 cells
T3 sequence (looked up): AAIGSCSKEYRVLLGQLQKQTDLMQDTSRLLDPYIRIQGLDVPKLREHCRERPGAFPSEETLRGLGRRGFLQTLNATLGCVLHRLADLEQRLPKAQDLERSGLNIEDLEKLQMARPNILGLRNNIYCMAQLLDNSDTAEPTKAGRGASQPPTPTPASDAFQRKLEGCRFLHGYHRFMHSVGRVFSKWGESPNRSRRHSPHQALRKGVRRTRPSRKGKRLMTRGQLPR
Description: as §1, §2

MS4A1 [2] = target: T4, MS4A1 (human, UniProt P11836)
T4 construct: expressed in transfected HEK293 cells; also called CD20
T4 sequence (looked up): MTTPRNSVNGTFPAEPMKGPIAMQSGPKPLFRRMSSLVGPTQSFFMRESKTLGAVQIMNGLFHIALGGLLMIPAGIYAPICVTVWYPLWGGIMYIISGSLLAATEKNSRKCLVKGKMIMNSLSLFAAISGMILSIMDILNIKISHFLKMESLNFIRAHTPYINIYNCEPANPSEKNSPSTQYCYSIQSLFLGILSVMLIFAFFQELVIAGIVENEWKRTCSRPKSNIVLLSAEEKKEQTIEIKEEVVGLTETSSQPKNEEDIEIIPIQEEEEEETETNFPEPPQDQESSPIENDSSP
Description: as §1, §2

SLMAP [3] = target: T1, SLMAP; remark: listed apart in the source
Description: as §1, §2

EDN1 = target: T5, EDN1 (human, UniProt P05305)
T5 construct: expressed in transfected HEK293 cells
T5 sequence (looked up): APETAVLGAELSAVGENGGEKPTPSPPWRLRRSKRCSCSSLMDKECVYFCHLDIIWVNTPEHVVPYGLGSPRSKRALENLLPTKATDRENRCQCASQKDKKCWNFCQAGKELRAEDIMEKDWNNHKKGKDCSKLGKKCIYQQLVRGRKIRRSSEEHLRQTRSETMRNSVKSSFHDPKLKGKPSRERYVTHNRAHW
Description: as §1, §2

ANXA6 = target: T6, ANXA6 (human, UniProt P08133)
T6 construct: expressed in transfected HEK293 cells
T6 sequence (looked up): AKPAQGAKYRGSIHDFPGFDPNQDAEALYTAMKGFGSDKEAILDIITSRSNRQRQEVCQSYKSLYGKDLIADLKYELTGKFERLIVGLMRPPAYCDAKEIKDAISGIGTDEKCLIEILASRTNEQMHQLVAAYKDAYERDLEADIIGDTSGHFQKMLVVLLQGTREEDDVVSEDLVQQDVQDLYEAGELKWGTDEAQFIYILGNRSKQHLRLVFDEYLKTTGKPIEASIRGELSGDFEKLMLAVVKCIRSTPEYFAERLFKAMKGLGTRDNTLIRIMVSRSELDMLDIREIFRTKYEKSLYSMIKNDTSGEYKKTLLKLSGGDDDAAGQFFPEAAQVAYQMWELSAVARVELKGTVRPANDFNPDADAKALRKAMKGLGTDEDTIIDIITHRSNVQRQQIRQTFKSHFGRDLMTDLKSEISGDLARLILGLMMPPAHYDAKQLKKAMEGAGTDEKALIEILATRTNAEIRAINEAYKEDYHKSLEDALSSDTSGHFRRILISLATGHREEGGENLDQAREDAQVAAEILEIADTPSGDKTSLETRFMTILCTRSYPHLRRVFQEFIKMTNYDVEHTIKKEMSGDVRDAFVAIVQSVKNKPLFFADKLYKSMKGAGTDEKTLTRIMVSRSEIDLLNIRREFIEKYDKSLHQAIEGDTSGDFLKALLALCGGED
Description: as §1, §2

MS4A1 [4] = target: T4, MS4A1; remark: listed apart in the source
Description: as §1, §2

Measured: binding result

B1: MH1, human IgG1 (antibody, V domains shown)
VH: QVQLVQSGAEVKKPGASVKVSCKASGYTFTDYYMNWVRQAPGQGLEWMGRIYPGSGNTYYAQKFQGRVTMTRDTSTSTVYMELSSLRSEDTAVYYCARGVYYYDYWGQGTLVTVSS
VL: DIQMTQSPSSLSASVGDRVTITCRASQGIRTNLAWFQQKPGKAPKSLIYAASSLQSGVPSRFSGSGSGTDFTLTISSLQPEDFATYYCQQYNSYPRTFGGGTKVEIK
notes: IgG1; also called IgG1-MH1
no binding (tested: 2 µg/ml): SLMAP [1] | ZG16B | OSM | MS4A1 [2]

B2: humanized h37M, human IgG1 (antibody, V domains shown)
VH: QVQLVQSGAEVKKPGASVKLSCKASGYTFTDYYINWVRQAPGKGLEWIARIYPGSGNTYYNEKFKGRATLTADKSTSTAYMQLSSLRSEDTAVYFCARGVYYFDYWGQGTTVTVSS
VL: DIVMTQSPSSLSASVGDRVTITCKASQNVRTNVAWYQQKPGKAPKALIYSASYRYSGVPDRFTGSGSGTDFTLTISSLQPEDFADYFCQQYNSYPRTFGGGTKVEIK
notes: human IgG1; terbium-labelled as the tracer of the HTRF assays; also called C-KIT-h37M; h37M-IgG1
no binding (tested: 2 µg/ml): SLMAP [3] | EDN1 | ANXA6 | MS4A1 [4]
